B1: Cry1Aa toxin-binding region of Bombyx mori cadherin-like receptor BtR175 (BtR175-TBR) (domain or fragment)
chain: ELVIRPYNFHAPVFVFPKHGATLRLARERAVVNGLLATVDGEFLNRIVATDEDGLHAGQVAFEVVGDTEAVDYFHIVNDGENSGTLMLKQLFPEDIREFEVTIRATDGGTEPRPLSTDCTFSVVFVPIQGEPIFPTSTHTVAFIEKEAGLLERHELPRAEDRKNHLCSDDCHNIYYRIIDGNNDGHFGLDETTNVLFLVKELDRSVSETYTLTIAASNSPTGGIALTSTITITVNVREADPQPYFVRDLYTAGISTSDSINRELLILQATHSENAPIIYTIDWSTMVTDPTLASVRETAFILNPHTGVLTLNIQPTASMHGMFEFQVVATDPAGYSDRANVKIYLISTRNRVFFLFV
notes: The limits are stated for the GST fusion used in biopanning; also called GST-BtR175-TBR; source: prepared as described previously (Fujii et al. 2013); GST-BtR175-TBR from pGEX4t-3, harvested as inclusion bodies and solubilized

Key:
[1] = target: Cry1Aa toxin-binding region of Bombyx mori cadherin-like receptor BtR175 (BtR175-TBR) (Bombyx mori) (UniProt Q9XY09); assay: SPR; BtR175-TBR immobilized on a CM5 chip by amine coupling (Biacore J); four concentrations of toxin in PBST (0.005% Tween, pH 7.4) for 120 sec, dissociation 240 sec; 1:1 Langmuir model, global fitting; KD = kd/ka
[2] = target: wild-type Cry1Aa toxin (trypsin-activated) (B. thuringiensis subsp. kurstaki strain …, UniProt P0A366 1-1176, Trypsin-activated toxin core, unmutated wild type. Limits are not printed: the N-terminus at Ile29 follows the conventional trypsin cut after Arg28 (and the IETGYTP start in the phage-display primer),); assay: as above; conditions: both partners purified

Molecule	Kd [1]	koff [1]	Kd [2]	koff [2]
Cry1Aa domain II loop 2 mutant toxin 371PHRP374 (trypsin-activated) (from UniProt P0A366 1-1176) (ligand)	8.3 nM	0.00122 s⁻¹	–	–
Cry1Aa domain II loop 2 mutant toxin 371WGLA374 (trypsin-activated) (from UniProt P0A366 1-1176) (ligand)	1.56 nM	0.00061 s⁻¹	–	–
Cry1Aa domain II loop 2 mutant toxin 371WPHH374 (trypsin-activated) (from UniProt P0A366 1-1176) (ligand)	1.55 nM	0.00066 s⁻¹	–	–
Cry1Aa domain II loop 2 mutant toxin 371WRPQ374 (trypsin-activated) (from UniProt P0A366 1-1176) (ligand)	0.5 nM	0.00102 s⁻¹	–	–
B1	–	–	25 nM	0.00267 s⁻¹
